Article PMC8467750

Assays:
[1] = biological target: histamine H4 receptor fused C-terminally to the small fragment of NanoLuc (H4R–NlucC) (human) (UniProt Q9H3N8); test: split reporter (BiFC, NanoBiT); split-NanoLuc mini-G protein recruitment assay in live HEK293T cells transiently co-expressing receptor–NlucC and NlucN–mini-G; recruitment upon histamine (serial dilutions), 37 °C, L-15 medium with 10 mM HEPES, furimazine; AUC of 45 min traces normalised to 100 µM histamine in the canonical system (H2R–mGs or H4R–mGsi, 100%) and L-15 (0%); N = 3, each in triplicate
[2] = biological target: histamine H2 receptor fused C-terminally to the small fragment of NanoLuc (H2R–NlucC) (human) (UniProt P25021); test: as above
UniProt P25021, sequence (P25021 whole entry, the tested form may be a part): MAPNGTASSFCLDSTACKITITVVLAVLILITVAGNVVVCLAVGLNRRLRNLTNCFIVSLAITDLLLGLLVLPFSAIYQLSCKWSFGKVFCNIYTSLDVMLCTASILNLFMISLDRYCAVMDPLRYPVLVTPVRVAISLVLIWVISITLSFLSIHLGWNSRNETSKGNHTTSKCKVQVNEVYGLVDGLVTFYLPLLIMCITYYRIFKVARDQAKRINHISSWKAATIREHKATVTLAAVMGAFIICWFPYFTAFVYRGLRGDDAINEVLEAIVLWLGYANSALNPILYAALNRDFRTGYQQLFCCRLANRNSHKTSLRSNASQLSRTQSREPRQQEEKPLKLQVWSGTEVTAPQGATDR

| Emax of histamine (mini-G recruitment) [1] [%] | Emax of histamine (mini-G recruitment) [2] [%] | pEC50 of histamine (mini-G recruitment) [2] | pEC50 of histamine (mini-G recruitment) [1] | Substance |
| --- | --- | --- | --- | --- |
| -13.5 | 100 | 6.86 | – | mini-G protein mGs fused N-terminally to the large fragment of NanoLuc (NlucN–mGs) |
| 100 | 26.8 | 5.3 | 6.6 | mini-G protein mGsi fused N-terminally to the large fragment of NanoLuc (NlucN–mGsi) |
| 13.8 | 29.6 | 5.48 | – | mini-G protein mGsq fused N-terminally to the large fragment of NanoLuc (NlucN–mGsq) |
